Results on two molecules are retold here after patent publication US12673985B2, “Method for the treatment or prophylaxis of cancer by targeting the extracellular portion of keratin 14 (KRT14) residing on cancer cells” (Hudson Institute of Medical Research, priority 2019, dated 2026).

Assay [1] concerns OVCAR4 ovarian cancer cells. Put plainly: Real time cell analysis (RTCA) of proliferation with cisplatin and mAb AN-17. In kind it is cell-based, human. How it is done: Real time cell analysis (RTCA) was conducted as previously described (PMID: 31443478; Bilandzic et al., Cancers (Basel). 2019; 11(9), E1228) using an xCELLigence RTCA SP 96-well instrument (ACEA Biosciences). Cell lines were synchronized in G0 by overnight incubation in serum-free media and were seeded at 0.5×10^3 cells/0.15 ml/per well. […] Impedance readings were taken every 15 minutes for the experimental duration. mAb AN-17 comprises the heavy chain variable region of SEQ ID NO:3 and the light chain variable region of SEQ ID NO:5, encoded by the nucleic acid sequences of SEQ ID NOs:2 and 4, respectively (see also FIGS. 21 and 22A-22B).

The test system of assay [2] is ovarian cancer cells. The assay is described as follows: Real-time in vitro invasion assay (xCELLigence RTCA) with anti-KRT14 antibodies, rK14 and competing peptides. The class given is cell-based, human. Particulars: for restoration of invasive capacity in competition with anti N-terminal KRT14 antibody: competition assay (FIG. 4B, 5B). The method, then:
xCELLigence Real Time Cell Analyses (RTCA). Real time cell analyses (RTCA) were conducted using an xCELLigence RTCA SP 96-well instrument (ACEA Biosciences). Cell lines were synchronized in Go phase by overnight incubation in serum-free media prior to commencement. For proliferation assays, cells were seeded at 0.5×10^3 cells/0.14 ml/per well (as outlined in the experimental text), and impedance readings taken every 5 minutes for 8 hours (in order to monitor cell adhesion), and subsequently every 15 minutes for 24 hours (to monitor cell proliferation). For invasion assays the upper chamber of a CIM-16 well plate was coated with Matrigel matrix (1:10 in SFM; BD Biosciences, San Jose, CA). Cells were seeded into the upper chamber (as above), with media+/−10% v/v FBS added to the lower chamber. All assays were performed in duplicate or triplicate, with at least three independent experiments.
Using flow cytometry and immunocytochemical staining of intact cells, it was observed that the N terminus of KRT14 is exposed at the cell surface (FIGS. 4A-4B). Consistent with other studies (Papafotiou et al. (2016) supra; Rock et al. (2009) supra), KRT14+ cells represented only a subset of tumor cell population (FIG. 4A). […] Thus, loss of invasive capacity was directly due to binding of the antibody of KRT14. Moreover, this effect is mediated by antibody binding to the N-terminus of KRT14; and the N-terminus was exposed on the external side of cells, accessible to antibody binding.
Antigenicity and hydrophobicity plots were used to examine the first 200 amino acids of KRT14 in silico (FIG. 5A). Five potentially antigenic regions were predicted, and six peptides encompassing to these regions were synthesized for use in further competition assays. Blockade of the N-terminal antibody by peptides #4 and #5 restored invasion (FIG. 5B) and migration (FIG. 5C) of ovarian cancer cells in vitro. […] Based on antibody and peptide competition assays, the surface-exposed region of the KRT14 protein was defined within the amino sequence NH2-[…] (SEQ ID NO:1). […]

On to `N.N.[Cl][Pt][Cl]` [cisplatin, reference compound], for which the “cell viability and proliferation” value is “sub-lethal and cells continued to proliferate” in assay [1] (cisplatin alone at 1.25 μg/ml); “complete cell death” in assay [1] (cisplatin alone at 15 μg/ml or 20 μg/ml).

B1: rK14: exogenously added, full-length recombinant KRT14 protein (protein)
chain: MTTCSRQFTSSSSMKGSCGIGGGIGGGSSRISSVLAGGSCRAPSTYGGGLSVSSSRFSSGGACGLGGGYGGGFSSSSSSFGSGFGGGYGGGLGAGLGGGFGGGFAGGDGLLVGSEKVTMQNLNDRLASYLDKVRALEEANADLEVKIRDWYQRQRPAEIKDYSPYFKTIEDLRNKILTATVDNANVLLQIDNARLAADDFRTKYETELNLRMSVEADINGLRRVLDELTLARADLEMQIESLKEELAYLKKNHEEEMNALRGQVGGDVNVEMDAAPGVDLSRILNEMRDQYEKMAEKNRKDAEEWFFTKTEELNREVATNSELVQSGKSEISELRRTMQNLEIELQSQLSMKASLENSLEETKGRYCMQLAQIQEMIGSVEEQLAQLRCEMEQQNQEYKILLDVKTRLEQEIATYRRLLEGEDAHLSSSQFSSGSQSSRDVTSSSRQIRTKVMDVHDGKVVSTHEQVLRTKN
With B1, in assay [2] (antibody or rK14 added exogenously (FIG. 4B)), the “invasion by ovarian cancer cells in vitro” value is on record as “had no effect alone”. In addition, the “restoration of invasive capacity in competition with anti N-terminal KRT14 antibody” value in assay [2] is “successfully competed with a N-term antibody to restore invasive capacity”; in assay [2] (listed as recombinant KRT14 protein), “could compete for antibody binding, and resorted invasion in vitro”.
